Measured values taken from article doi:10.1101/2024.10.11.617910.

Biological target: pyroglutamate beta-amyloid peptide (pGlu3-Aβ)
Assay: SiMoA

limit of detection (LoD): 4 pM
B1: Lecanemab (antibody, V domains shown)
VH: EVQLVESGGGLVQPGGSLRLSCSASGFTFSSFGMHWVRQAPGKGLEWVAYISSGSSTIYYGDTVKGRFTISRDNAKNSLFLQMSSLRAEDTAVYYCAREGGYYYGRSYYTMDYWGQGTTVTVSS
VL: DVVMTQSPLSLPVTPGAPASISCRSSQSIVHSNGNTYLEWYLQKPGQSPKLLIYKVSNRFSGVPDRFSGSGSGTDFTLRISRVEAEDVGIYYCFQGSHVPPTFGPGTKLEIK
